Experimental findings from patent US20240034757A1 (OXFORD UNIVERSITY INNOVATION, published 2024) are described below.

In general, Kd refers to the concentration at which binding is half-saturated. Read a high Kd as lower affinity.

Experiment in all cases: BLI
(BLI is a label-free optical method that tracks binding on a fibre tip over time.)

In test [1] the target is CCL7_HUMAN (human, UniProt P80098 24-99).
Test [2] has as its target T1, CCL17_HUMAN (human, UniProt Q92583 24-94).
T1 sequence: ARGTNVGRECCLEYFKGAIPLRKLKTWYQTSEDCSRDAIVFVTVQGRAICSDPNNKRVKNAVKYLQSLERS

The target in test [3] is T2, CCL18_HUMAN (human, UniProt P55774 21-89).
T2 sequence: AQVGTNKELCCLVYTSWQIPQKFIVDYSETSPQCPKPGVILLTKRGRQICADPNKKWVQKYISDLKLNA

The target in test [4] is CCL20_HUMAN (human, UniProt P78556 27-96).
For test [5], the target named is T3, CCL21_HUMAN (human, UniProt O00585 24-134).
T3 sequence: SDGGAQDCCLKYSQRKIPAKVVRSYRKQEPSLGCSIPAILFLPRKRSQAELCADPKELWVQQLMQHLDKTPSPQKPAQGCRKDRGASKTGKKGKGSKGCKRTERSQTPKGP

Test [6] deals with T4, CCL24_HUMAN (human, UniProt O00175 27-104).
T4 sequence: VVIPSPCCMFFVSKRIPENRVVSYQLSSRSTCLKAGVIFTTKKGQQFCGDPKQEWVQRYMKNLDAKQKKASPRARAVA

Test [7] addresses T5, CCL1_HUMAN (human, UniProt P22362 24-96).
T5 sequence: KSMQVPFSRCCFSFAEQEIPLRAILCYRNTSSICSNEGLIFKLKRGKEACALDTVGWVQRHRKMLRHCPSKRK

Test [8] has as its target T6, CCL3_HUMAN (human, UniProt P10147 24-92).
T6 sequence: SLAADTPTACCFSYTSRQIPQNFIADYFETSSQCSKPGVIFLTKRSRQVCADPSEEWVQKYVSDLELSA

For test [9], the target named is T7, CCL3L1_HUMAN (human, UniProt P16619 24-93).
T7 sequence: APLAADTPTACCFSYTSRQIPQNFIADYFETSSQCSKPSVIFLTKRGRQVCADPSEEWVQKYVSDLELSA
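Also: biolayer interferometry binding readings, curves fitting with R² below 0.9 dropped, every experiment run at least three times.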

CCL7_HUMAN, sequence (P80098 24-99 limits assumed): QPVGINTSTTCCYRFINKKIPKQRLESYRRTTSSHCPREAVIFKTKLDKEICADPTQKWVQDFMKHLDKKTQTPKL
CCL20_HUMAN, sequence (P78556 27-96 limits assumed): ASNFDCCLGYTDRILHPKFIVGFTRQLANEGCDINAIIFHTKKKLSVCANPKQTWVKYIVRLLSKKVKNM

B1: P1243:G4S:P1156 (designed binder)
chain: RNHTEDNSTEYYDYEEARCACPARHLNNTNGTVLKLLGCHYFCNGTLCTAPDGYPCYNLTAQQVRTLTTYPNTSCAVGVCMKGTCVKNGTMEQCFKTPGGGGSADDDNELFTVQYCGMNCTKDEGGTWTGCTGKKEGCKCYHESGKNYGLCLSTEYTDFSQYGNPSDSEIEAAKPKRSDTLSH
On to B1, for which the Kd is 49 nM in [1]; 3.51 nM in test [2]; 0.543 nM in test [3]; 53.8 nM in test [5]; 16.4 nM in test [6]; 16.4 nM in [8]. The same molecule registered a Kd in test [9] of 4.06 nM. Moreover, the binding result in [4] and in test [7] was “no binding (tested: 300 nM)” each time.
